Assay results from paper PMC3613695 (The Journal of Cell Biology, 2013).

B1: Cnl1 (BLOC-1 subunit), overexpressed (natural protein, yeast, UniProt Q06333 1-122, looked up)
chain: MQDNSSHSRESASAGDDPLGIDKLTVDYDYLLYKMRDYVQSIQLDTTELCKKQNEVMVNGIIENTIDKNIAKFKELLEKCDTLENHYEMLNQLAIITDTFKERIAEAVNNYNSLKKGASKSK
B2: Bls1 (BLOC-1 subunit), overexpressed (natural protein, yeast, UniProt Q06071 1-122, looked up)
chain: MFLTFSMCVNWIIVKMPNRSEELDRLLDKIINSPHRTEASKTLQEIENNQSYILNVQLKKLLRLHDDSFKNKCVSPINYMLEKYTPYMGHTEALQKEAELVDRDLRILEMTYQLIEKNRNSK
B3: Kxd1 (BLOC-1 subunit), overexpressed (natural protein, yeast, UniProt P53158 1-218, looked up)
chain: MVTGISEENDDEETFSAVHSSTPSINSQSYAIPITEEMSSSFHDSISTTSNSSGSFDSDGSNVSDVVEQNEMDNESNVDEDLFLDNDIPQSSNLLPTDAQDPGPIFDVSRYIFDSLKQSIDSADFSEALSLQTKTSAVINSKSLELKQYIDEMKSRLTQLQEKFENGEATSKKIKRDLETSRKNIDYLNAALRVDFPIEFNQAREKILERRLNEDHDC
B4: Bli1 (BLOC-1 subunit), overexpressed (natural protein, yeast, UniProt P35727 1-113, looked up)
chain: MGEQNKLYYDVEKLVNSLQESFDLDCAQSVSLFTSKSRSNEAWLEELENKFKLKDDVELDDVENLRAEIDMKLNMLEDKVSYYERLYKELEEFQNEIKIKTVVNNRRQSRTPK
B5: Vab2 with C-terminal TAP tag (natural protein)
chain: MVADLTKGILKWKSRIEFDAVGSSSYYEELKGLPPLASHKKLTQAAIFNSTKYELLQVKKDILSIYEVVSRDIDEERNQMQQIELQLKKSLKKVEHSYKNVLKQRASTNCINGNDRLLANAEKKIGSLNEELACVNDIVSDIVNNLTALNANLPKKAQLLKDDSINVAHYPLLFDFLHKSCPKSIIATSEASIHENASPSPLLEHDELPAESINSFYGENELQSDSLAPLQTHDDNISSCKKILPPKFNTTSGPSIETNFENISADGLTYTKCSLKNSISLT

Columns and labels:
[1] = target: B5; test: affinity purification with mass spectrometry
[2] = target: B5; test: SEC
[3] = target: Snn1 (BLOC-1 subunit), overexpressed (yeast, UniProt P48232 1-102); test: affinity purification with mass spectrometry

Row | Binder | binding result [1] | further results
1 | B1 | binds | –
2 | B2 | binds | –
3 | B3 | – | binding result [2]: binds
4 | B4 | binds | –
5 | B5 | – | binding result [3]: binds
